We go through four molecules from paper PMC3806761, “Characterization of the Akt2 Domain Essential for Binding Nuclear p21cip1 to Promote Cell Cycle Arrest during Myogenic Differentiation” (PLoS ONE, 2013).

Assay [1] has as its target T1, recombinant human p21cip1 (human, UniProt P38936 1-164).
T1 construct: In the functional row this molecule stands for p21cip1 endogenous in human myoblasts; source: recombinant, purified
Nature of the assay: pull-down; purified His-tagged Akt2 proteins and His-tagged p21cip1 incubated together on ice; p21cip1 immunoprecipitated with anti-p21; immunoprecipitates probed for Akt2 by Western blot. Particulars: both partners purified.

In assay [2] the target is T1, recombinant human p21cip1. Nature of the assay: pull-down; MBP-tagged Akt2 peptides bound to amylose resin, incubated with p21 (1 µg and 5 µg), extensively washed, maltose-fusion peptides eluted, blotted with anti-p21. Particulars: both partners purified.

T1 sequence (P38936 whole entry): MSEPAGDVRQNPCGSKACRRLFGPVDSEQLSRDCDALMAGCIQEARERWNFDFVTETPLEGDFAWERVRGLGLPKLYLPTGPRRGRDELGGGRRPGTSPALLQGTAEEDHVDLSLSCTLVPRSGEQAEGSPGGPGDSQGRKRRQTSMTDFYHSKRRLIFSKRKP

B1: Akt2 (400–481) (domain or fragment, human, UniProt P31751 400-481, looked up)
chain: AKEVMEHRFFLSINWQDVVQKKLLPPFKPQVTSEVDTRYFDDEFTAQSITITPPDRYDSLGLLELDQRTHFPQFSYSASIRE
notes: The tag is therefore uncertain; source: expressed in bacteria, purified; not shown: His6, C-terminal, kept
B1: in assay [1], the binding result was “binds”.

B2: Akt2 (400–445) maltose binding fusion protein (domain or fragment, human, UniProt P31751 400-445, looked up)
chain: AKEVMEHRFFLSINWQDVVQKKLLPPFKPQVTSEVDTRYFDDEFTA
notes: The methods name no vector for this construct
In the case of B2, the binding result in assay [2] was “binds”.

B3: Akt2 (350–481) (domain or fragment, human, UniProt P31751 350-481, looked up)
chain: FYNQDHERLFELILMEEIRFPRTLSPEAKSLLAGLLKKDPKQRLGGGPSDAKEVMEHRFFLSINWQDVVQKKLLPPFKPQVTSEVDTRYFDDEFTAQSITITPPDRYDSLGLLELDQRTHFPQFSYSASIRE
notes: as for B1
As to B3, the binding result in assay [1] was “binds”.

B4: Akt2 (420–445) maltose binding fusion protein (domain or fragment, human, UniProt P31751 420-445, looked up)
chain: KKLLPPFKPQVTSEVDTRYFDDEFTA
notes: as for B2
Turning to B4, the binding result in assay [2] is “binds”.
